# From the nanobody polyreactivity screen of Harvey et al. (2022)
# Assay: yeast display, Sf9 membrane polyspecificity reagent, FACS + sequencing; frameworks hold sequencing errors
# Method in brief: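 Genes from sorted yeast were amplified by colony PCR, read by MiSeq 2 × 250 sequencing and filtered on CDR length. These cells carried a synthetic nanobody library in Saccharomyces cerevisiae BJ5465 and were sorted by FACS into low and high (top ~1%) gates on anti-HA and streptavidin fluorescence. Polyreactivity is labelled according to the gate of origin.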
row,Sequence,polyreactivity (PSR sort gate)
1,QVQLVESGGGLVQAGGSLRLSCAASGRTFVVYGMGWYRQAPGKERELVATITSGGSTDYADSVKGRFTIARDNAKNTVYLQMNSLKPEDTAVYYCAKETSYTNDDDYWGQGTQVTVSS,low polyreactivity
2,QVQLVESGGGLVQAGGSLRLSCAASGRTFVWNAIGWYRQAPGKERELVDAITSGGSTNYADSVKGRFTISRDNAKNTVYLQMNSLKPEDTAVYYCAADWHYSPRMDYWGQGTLVTVSS,low polyreactivity
3,QVQLVESGGGLVQAGGSLRLSCAASGRTFVYNAMGWYRQAPGKERELVAAINWRGGSTYYADSVKGRFTISRDNAKNTVSLQMNSLKPEDTAVYYCAPRNVYVWYDYWGQGTQVTVSS,low polyreactivity
4,QVQLVESGGGLVQAGGSLRLSCAASGRTFVYNAMGWYRQAPGKERELVAAITRNGGSTYYADSVKGRFTISRDNAKNTVYLQMNSLKPEDTAVYYCNRDVRYVGRSGFDYWGQGTQVTVSS,high polyreactivity
5,QVQLVESGGGLVQAGGSLRLSCAASGRTFVYNAMGWYRQAPGKERELVAAITSGGSTYYADSVKGRFTMSRDNAKNTVYLQMNSLKPEDTAVYYCDGYKRGYYWGQGTQVTVSS,high polyreactivity
6,QVQLVESGGGLVQAGGSLRLSCAASGRTFVYYAMGWYRQAPGKERELVAAITSGGSTNYADSVKGRFTISRDNAKNTVYLQMNSLKPEDTAVYYCNAYGVSWFYYTWKYDYWGQGTQVTVSS,low polyreactivity
7,QVQLVESGGGLVQAGGSLRLSCAASGRTFVYYAMGWYRQAPGKERELVATISTTGGRTYYADSVKGRFTISRDNAKNTVYLQMNSLKPEDTAVYYCAADLYGAYGYWGQGTQVTVSS,low polyreactivity
8,QVQLVESGGGLVQAGGSLRLSCAASGRTFVYYAMGWYRQAPGKERELVATITRGGRTNYADSVKGRFTISRDNAKNTVYLQMNSLKPEDTAVYYCNARYSWWRSRVGSSHRPDGYWGQGTQVTVSS,high polyreactivity
9,QVQLVESGGGLVQAGGSLRLSCAASGRTFWANAMGWYRQAPGKERELVAAITIDGRTSYADSVKGRFTISRDNAKNTVYLQMNSLKPEDTAVYYCATEPFYTYGYYTYPYWYDYWGQGTQVTVSS,low polyreactivity
10,QVQLVESGGGLVQAGGSLRLSCAASGRTFWDYAMGWYIQAPGKEREFVAAINTSGGRTYYADSVKGRFTISRDNAKNTVYLQMNSLKPEDTAVYYCAARTRDRAYDSWGQGTQVTVSS,high polyreactivity
11,QVQLVESGGGLVQAGGSLRLSCAASGRTFWFNAMGWYRQAPGKARELVAAISGITGSTYYADSVKGRITISRDNAKNTVYLQMNSLKPEATAVYYCATNRRGTWDYDYWGQGTQVTVSS,low polyreactivity
12,QVQLVESGGGLVQAGGSLRLSCAASGRTFWFYAMGWYRQAPGKERELVATINYRGGTTYYADSVKGRFTISRDNAKNTVYLQMNSLKPEDTAVYYCAVRPTRTFIYVYWGQGTEVTVSS,high polyreactivity
13,QVQLVESGGGLVQAGGSLRLSCAASGRTFWGITMGWYRQAPGKERELVASITYSGGRTYYADSVKGRFTISRDNAKNTVYLQMNSLKPEDTAVYYCAATLYRYRYFGYDYWGQGTQVTVSS,high polyreactivity
14,QVQLVESGGGLVQAGGSLRLSCAASGRTFWIYAMGWYRQAPGKERELVAGISRSGGSTNYADSVKGRFTISRDNAKNTVYLQMNSLKPEDTAVYYCNTDPYSSAWYNYDYWGQGTQVTVSS,low polyreactivity
15,QVQLVESGGGLVQAGGSLRLSCAASGRTFWKNTMGWSRQAPGKERELVAVISSGGVSTSYADSVKGRFTISRDNAKNTVYLQMNSLKPEDTAVYYCAADGYYIGPYDYWGQGTQVTVSS,low polyreactivity
16,QVQLVESGGGLVQAGGSLRLSCAASGRTFWNYAMGWYRQAPGKERDLVAVIRFSDGSTYYAYSVKGRFTISRDNAKNTVYLHMNSLKPEDTAVYYCAAKGPRRWGSGFDYWGQGTQVTVSS,low polyreactivity
17,QVQLVESGGGLVQAGGSLRLSCAASGRTFWPYVMGWYRQAPGKERELVASITRSGGTTNYADSVKGRFTISRDNAKNTVYLQMNSLKPEDTAVYYCNARTVYSWSREYNYWGQGTQVTVSS,high polyreactivity
18,QVQLVESGGGLVQAGGSLRLSCAASGRTFWRNAMGWYRQAPWKERELVAAISRSGDSTRYADSVKGRFTISRDNAKYSVYLQRTSLKPEATAVYYCNKLGTGVYEMDYWGQGTKVTVSS,high polyreactivity
19,QVQLVESGGGLVQAGGSLRLSCAASGRTFWRYAMGWDRQAPGKERELVAGITNSGGNTYYADSVKGRFTISRDNAKNTVYLQMNSLKPEDTAVYYCAARSGRFKYSSWSRGPTYDYWGQGTQVTVSS,low polyreactivity
20,QVQLVESGGGLVQAGGSLRLSCAASGRTFWSYAMGWYRQAPGKEREFVAAISRRGGITYYADSVKGRFTISRDNAKNTVYLQMNSLKPEDTAVYYCAKGAQSYYGGQVKYDYWGQGTQVTVSS,high polyreactivity
21,QVQLVESGGGLVQAGGSLRLSCAASGRTFWTYTMGWYRQAPGKEREFVAAITFGDGSTSYADSVKGRFTISRDNAKNTVYLQMNSLKPEDTAVYSCAKRWRRRFVDVWSLYDYWGQGTQVTVSS,low polyreactivity
22,QVQLVESGGGLVQAGGSLRLSCAASGRTFWWYTMGWYRQAPGKERELVAVISSTGGRTYYADSVKGRFTISRDNAKNTVYLQMNSLKPEDTSVYYCAAEYVSAKWEYGYWGQGTQVTVSS,low polyreactivity

row,Sequence,polyreactivity (PSR sort gate)
1,QVQLVESGGGLVQAGGSLRLSCAASGRTFWYNAMGWYRQAPGKERELVAAISSSGGTTYYADSVKGRFTISRDNAKNTVYLQMNSLIPEDTAVYYCARQRRSVNVYKNIYKYWGQGTQVNVSS,high polyreactivity
2,QVQLVESGGGLVQAGGSLRLSCAASGRTFWYYAMGWYRPAPGKERELVAGIRSGGSTYYADSVKGRFTISRDNAKNTVYLQMNSLKPEDTAVYYCATDYYYSNAKYDYWGQGTQVTVSS,high polyreactivity
3,QVQLVESGGGLVQAGGSLRLSCAASGRTFWYYAMGWYRQAPGKERELVASISRSGGSTYYADSVKGRFTISRDNAKNTVYLQMNSLKPEDTAVYYCARGSELGYYAWVYYWGQGTQVTVSS,high polyreactivity
4,QVQLVESGGGLVQAGGSLRLSCAASGRTFWYYAMGWYRQAPGKERELVAVINSSGGRTYYADSVKGRFTISRDNAKNTVYLQMNSLKPEDTAVYYCAAYRGVPSRYDYWGQGTQVTVSS,high polyreactivity
5,QVQLVESGGGLVQAGGSLRLSCAASGRTFWYYDMGWSRQAPGKERELVAAISRSGGSTYYADSVKGRFTISRDNAKNTVYLQMNSLKPEDTAVYFCAAVSYGYWVTEYYYWGQGSQVTVSS,high polyreactivity
6,QVQLVESGGGLVQAGGSLRLSCAASGRTFWYYEMGWYRQAPGKERELVATINNVGSTHYADSVKGRFTISRDNAKNTVYLQMNSLKPEDTAVYYCGRASYGKMDYWGQGTQVTVSS,high polyreactivity
7,QVQLVESGGGLVQAGGSLRLSCAASGRTFWYYTMGWYRQAPGKERELVAAISRSGGSTYYADSVKGRFTISRDNAKNTVYLQMNSLKPEDSAVYFCAAGVQSSVYPYYRFDYWGQGTQVTVSS,high polyreactivity
8,QVQLVESGGGLVQAGGSLRLSCAASGRTFWYYTMGWYRQAPGKERELVAAITRRGGSTYYADSVKGRFTISRDNAKNTVYLQMNSLKPEDTAVYYCARGGSRLTQGWLVTPYDYDYWGQGTQVTVSS,high polyreactivity
9,QVQLVESGGGLVQAGGSLRLSCAASGRTFYANAMGWYRQAPGKERELVAGISYSGGNTYYADSVKGRFTISRDNAKNTVYLQMNRLKPEYTAVYYCAAATDWEYWTYEYWRQGTQVTVSS,low polyreactivity
10,QVQLVESGGGLVQAGGSLRLSCAASGRTFYANDMGWYRQAPGKERELVAAISSSVTSTHYADSVKGRFTISRDNAKNTVYLQMNSLKPEDTAVYYCNKDPIREVPPPGPSEMDYWGQGTQVTVSS,low polyreactivity
11,QVQLVESGGGLVQAGGSLRLSCAASGRTFYAYVMGWYRQAPGKERELVAAISGGGRTYYADSVKGRFTISRDNAKNTVYLQMNSLKPEDTAVYYCAAVSLWYSAYEYWGQGTQVTVSS,high polyreactivity
12,QVQLVESGGGLVQAGGSLRLSCAASGRTFYDNTMGWYRQAPGKERELVAAINWSGTRTYYADSVKGRFTISRDNAKNTVYLQMNSLKPEDTAVYYCAADGPFRRTYGYWGQGTQVTVSS,low polyreactivity
13,QVQLVESGGGLVQAGGSLRLSCAASGRTFYDNTMGWYRQAPWKERELVAAISRGGSTYADSVKGRFTISRDNAKNTVYLQMNSLKPEDTAVYYCNKRSITTEYGYWGQGTQVTVSS,low polyreactivity
14,QVQLVESGGGLVQAGGSLRLSCAASGRTFYDYAMGWYRQAPGKERELVAGIRWSGGSTYYADSVKGRFTISRDNAKNTVYLQMISLKPEDTAVYYCAADWFAGVAADVEYDYWGQGTQVTVSS,low polyreactivity
15,QVQLVESGGGLVQAGGSLRLSCAASGRTFYEYTIGWYRQAPGKERELVAAITWSVGSTYYADSVKGRFTISRDIAKNTVYLQMNSLKPEETAVYDCAAYYYVWYYYWGQGTQVTVSS,low polyreactivity
16,QVQLVESGGGLVQAGGSLRLSCAASGRTFYFNAMGWYRPAPGKERELVAAITSGVRTKYADSVKGRFTISRDNAKNTVYLQMNSLKPEDTAVYYCAAGGYPSRYAPWMEYWGQGTQVTVSS,high polyreactivity
17,QVQLVESGGGLVQAGGSLRLSCAASGRTFYFYAMGWYRQAPGKERELVAAISSGASTYYADSVKGRFTISRDNAKNTVYLQMNSLKPEDTAVYYCAAEFWTQWSGYEYWGQGTQVTVSS,high polyreactivity
18,QVQLVESGGGLVQAGGSLRLSCAASGRTFYFYAMGWYRQAPGKERELVAAISWTGGITYYADSVKGRFTISRDNAKNTVYLQMNSLKPEDTAVYYCAAGYYYKVYWGQGTQVTVSS,low polyreactivity
19,QVQLVESGGGLVQAGGSLRLSCAASGRTFYFYAMGWYRQAPGKERELVAGISWRGVSTYYADSVKGRFTISRDNAKNTVYLQMNSLKPEDTAVYYCAADIGRHTDNYDPRYDYWGQGTQVTVSS,low polyreactivity
20,QVQLVESGGGLVQAGGSLRLSCAASGRTFYGNAMGWYRQAPGKERELVAAISWSGGSTYYADSVKGRFTISRDNAKNTVYLQMNSLKPEDTAVYYCNADYFAWDLMYYWGHGTQVTVSS,low polyreactivity
21,QVQLVESGGGLVQAGGSLRLSCAASGRTFYGNAMGWYSQAPGKERELVAAITDVDSTYYADSVKGRFTISRDNAKNSVYLQMNSLKPEDTAVYYCNADTSWGYPYGYWGQGTQVTVSS,low polyreactivity
